Assay results as given in publication PMC10066265, “Inhibitor-3 inhibits Protein Phosphatase 1 via a metal binding dynamic protein–protein interaction” (Nature Communications, 2023).
Where “and” joins values, the source holds several entries; their conditions need not be identical. Equal values may be shown once. Read-outs that look alike come from different tables or passages of the source.

Experiments:
[1] = target: T1, PP1_7-330 (Homo sapiens, UniProt P62136)
T1 construct: gene PPP1CA; His6-PP1α7-330, E. coli expressed, Mn2+ loaded
Procedure: SPR measurements were performed using a 4-channel Reichert 4SPR instrument fitted with autosampler and a degassing pump (Reichert Technologies). SPR buffers containing 20 mM Tris pH 8.0, 500 mM NaCl, 1 mM MnCl2, 0.5 mM TCEP, 0.05% Tween-20 were prepared, sterile filtered, and degassed in autoclaved glassware prior to each experiment. Running buffer was used to prime and run both the sample and syringe pump reservoirs. Gold sensorchips modified with Ni-NTA-functionalized polycarboxylate (NiH[…]; XanTec Bioanalytics GmbH) were installed and equilibrated under flow conditions (100 μL/min) for ≥60 min at 25 °C. Surface contaminants were cleared from the chip surface by a pair of 120 μL injections of 2 M NaCl and 10 mM NaOH during the equilibration step. […] The sensorchip was allowed to equilibrate for 5 min at 50 μL/min prior to initiation of experiments. The concentrations of I3_1-126 and its variants ([…] and […]3_79-91) were measured using AccuOrange^TM Protein Quantification Kit (Biotium). For measurements, I3_1-126 and its variants were diluted into running buffer from concentrated stocks, and a series of injections at different I3 concentrations were applied. […] For all experiments, buffer blank injections were included at an interval of two sample injections to achieve double referencing. Technical replicates were obtained by utilizing three channels per chip coupled with stripping of the sensorchip with 350 mM EDTA pH 8.0, reconditioning the surface with 10 mM NaOH to remove non-specifically bound PP1 aggregates, charging the surface with 10 mM NiSO4, and reloading fresh PP1 onto the surface. All replicates were generated with freshly diluted PP1 and I3. Kinetic parameters were determined by curve-fitting using TraceDrawer software (Ridgeview Instruments AB) fit with a one-to-one one state or one-to-one two state model. Statistical analyses of SPR data were performed using Microsoft Excel.

[2] = target: T1, PP1_7-330; conditions: SD, n = 3
[3] = target: T2, His6-PP1α_(7-330) (UniProt P62136 7-330); experiment: SPR; His6-PP1 captured on a Ni-NTA sensorchip (NiHC200M), I3 variants injected; 25 °C; 20 mM Tris pH 8.0, 500 mM NaCl, 1 mM MnCl2, 0.5 mM TCEP, 0.05% Tween-20; one-to-one one state or one-to-one two state model; conditions: both partners purified
T2 construct: Protein Phosphatase 1 alpha (PP1α), residues 7-330; Captured by its His6 tag on the Ni-NTA chip for SPR; Two Mn2+ at the active site when made in E. coli with MnCl2; also called PP1_(7-330); Protein Phosphatase 1; source: bacterial expression (E. coli) as previously described, purified (Ni-NTA, SEC)

[4] = target: T3, PP1α_(7-330) (UniProt P62136 7-330); experiment: SPR; His6-PP1 captured on Ni-NTA chip (NiHC200M), I3 variants injected; 25 °C; 20 mM Tris pH 8.0, 500 mM NaCl, 1 mM MnCl2, 0.5 mM TCEP, 0.05% Tween-20; one-to-one one state or one-to-one two state model (TraceDrawer); conditions: both partners purified
T3 construct: Protein Phosphatase 1 alpha (PP1α), residues 7-330; His6-PP1 was captured on the Ni-NTA sensor chip as the SPR ligand; Mn2+ in all buffers; also called Protein Phosphatase 1; His6-PP1; source: E. coli, purified (Ni-NTA, SEC)

[5] = target: T2, His6-PP1α_(7-330); experiment: cell-based or functional assay

T1 sequence (P62136 7-330): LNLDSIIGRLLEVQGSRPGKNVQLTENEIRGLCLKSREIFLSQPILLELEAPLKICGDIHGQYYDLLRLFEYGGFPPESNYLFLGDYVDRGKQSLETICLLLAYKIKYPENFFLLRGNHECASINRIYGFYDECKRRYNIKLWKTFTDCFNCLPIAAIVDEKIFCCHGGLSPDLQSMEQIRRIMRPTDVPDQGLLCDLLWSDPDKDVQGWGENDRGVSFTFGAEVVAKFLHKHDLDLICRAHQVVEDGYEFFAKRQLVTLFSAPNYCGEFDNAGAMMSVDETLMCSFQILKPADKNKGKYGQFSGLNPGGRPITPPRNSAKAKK
T2 sequence (P62136 7-330): as above
T3 sequence (P62136 7-330): as above

**Q.** Which Kd ([1]; n = 3) does the source give for “I3 1-126 C60S/C61S/C62S [SSS: I3_1-126 C60S/C61S/C62S]” here?
**A.** Its Kd is 300 ± 23 nM.

**Q.** Which Kd ([1]; n = 3) does the source give for “I3 1-126 T29A/I30A/K31A [SILKdead: I3_1-126 T29A/I30A/K31A]” here?
**A.** Its Kd is 13.1 ± 2.8 nM.

**Q.** “I3 1-126 with KVEW 40-43 mutated to KAEA [RVxFdead: I3_1-126 ^40KAEA^43]” was tested. Which Kd ([1]; n = 4) did it give?
**A.** Its Kd is 3460 ± 531 nM.

**Q.** How did the IC50 [2] turn out when “human Inhibitor-3 (PPP1R11) full length, residues 1-126 [I3_1-126]” was run?
**A.** Its IC50 is 71 ± 6 nM.

**Q.** What about the Kd ([1]; n = 3) of the same molecule?
**A.** Its Kd is 15.7 ± 2 nM.

B1: SILK_(dead): I3_(27-68) T29A/I30A/K31A (domain or fragment, human, UniProt O60927 27-68, looked up)
chain: SLAAALRKRKPEKKVEWTSDTVDNEHMGRRSSKCCCIYEKPR
notes: PPP1R11), human, residues 27-68; also called I3_(27-68) 29AAA31; source: E. coli BL21 (DE3), purified (Ni-NTA, TEV, heat 95 °C, SEC); not shown: His6, N-terminal, cleaved; MBP, N-terminal, cleaved
**Q.** How did the Kd [3] turn out when B1 was run?
**A.** The Kd was 16.8 ± 2.8 nM.

B2: SILK_(dead): I3_(27-68) T29A/I30A/K31A (domain or fragment, human, UniProt O60927 27-68, looked up)
chain: SLAAALRKRKPEKKVEWTSDTVDNEHMGRRSSKCCCIYEKPR
notes: PPP1R11), human, residues 27-68, T29A/I30A/K31A; also called I3_27-68_SLAAA; I3_(27-68) 29AAA31; source: E. coli BL21 (DE3), purified (Ni-NTA, TEV cleavage, heat, SEC); not shown: His6, N-terminal, cleaved; MBP, N-terminal, cleaved
**Q.** Which Kd [4] does the source give for B2 here?
**A.** Its Kd is 13.5 nM and 18.2 nM and 18.6 nM.

B3: SILK_(deletion): I3_(38-68) (Δ27-37) (domain or fragment, human, UniProt O60927 38-68, looked up)
chain: EKKVEWTSDTVDNEHMGRRSSKCCCIYEKPR
notes: PPP1R11), human, residues 38-68; source: E. coli BL21 (DE3), purified (Ni-NTA, TEV, heat 95 °C, SEC); not shown: His6, N-terminal, cleaved; MBP, N-terminal, cleaved
**Q.** Which Kd [3] does the source give for B3 here?
**A.** Its Kd is 15.2 ± 2.5 nM.

B4: SILK_(deletion): I3_(38-68) (Δ27-37) (domain or fragment, human, UniProt O60927 38-68, looked up)
chain: EKKVEWTSDTVDNEHMGRRSSKCCCIYEKPR
notes: PPP1R11), human, residues 38-68; also called SILKdead: I338-68 (Δ27-37); source: E. coli BL21 (DE3), purified (Ni-NTA, TEV cleavage, heat, SEC); not shown: His6, N-terminal, cleaved; MBP, N-terminal, cleaved
**Q.** For B4, which Kd [4] is on record?
**A.** Its Kd is 14.8 nM and 17.9 nM and 13 nM.

B5: Inhibitor-3 I3_(1-126) (full-length) (natural protein, human, UniProt O60927 1-126, looked up)
chain: MAEAGAGLSETVTETTVTVTTEPENRSLTIKLRKRKPEKKVEWTSDTVDNEHMGRRSSKCCCIYEKPRAFGESSTESDEEEEEGCGHTHCVRGHRKGRRRATLGPTPTTPPQPPDPSQPPPGPMQH
notes: PPP1R11), human, 126 aa, residues 1-126; Uniformly 15N-labelled in the NMR experiment, unlabelled in SPR; also called PPP1R11; YPI1; source: E. coli BL21 (DE3), purified (Ni-NTA, TEV, heat 95 °C, SEC); not shown: His6, N-terminal, cleaved; MBP, N-terminal, cleaved
**Q.** Which results are given for B5?
**A.** Kd [3]: 15.7 ± 2 nM; IC50 of PP1 inhibition (dephosphorylation of the H3pT3 peptide, released Pi) [5]: 71 nM

B6: I3_(1-126) (FL, full-length) (natural protein, human, UniProt O60927 1-126, looked up)
chain: MAEAGAGLSETVTETTVTVTTEPENRSLTIKLRKRKPEKKVEWTSDTVDNEHMGRRSSKCCCIYEKPRAFGESSTESDEEEEEGCGHTHCVRGHRKGRRRATLGPTPTTPPQPPDPSQPPPGPMQH
notes: PPP1R11), human, 126 aa, residues 1-126; also called PPP1R11; source: E. coli BL21 (DE3), purified (Ni-NTA, TEV cleavage, heat, SEC); not shown: His6, N-terminal, cleaved; MBP, N-terminal, cleaved
**Q.** With B6 as the molecule, how does the Kd [4] read?
**A.** Its Kd is 17.7 nM and 13.7 nM and 15.6 nM.

B7: SSS: I3_(1-126) C60S/C61S/C62S (natural protein, human, UniProt O60927 1-126, looked up)
chain: MAEAGAGLSETVTETTVTVTTEPENRSLTIKLRKRKPEKKVEWTSDTVDNEHMGRRSSKSSSIYEKPRAFGESSTESDEEEEEGCGHTHCVRGHRKGRRRATLGPTPTTPPQPPDPSQPPPGPMQH
notes: PPP1R11), human, residues 1-126; also called I3_(1-126)SSS; source: E. coli BL21 (DE3), purified (Ni-NTA, TEV, heat 95 °C, SEC); not shown: His6, N-terminal, cleaved; MBP, N-terminal, cleaved
**Q.** How did the Kd [3] turn out when B7 was run?
**A.** Its Kd is 300 ± 23 nM.

B8: SILK_(dead): I3_(1-126) T29A/I30A/K31A (natural protein, human, UniProt O60927 1-126, looked up)
chain: MAEAGAGLSETVTETTVTVTTEPENRSLAAALRKRKPEKKVEWTSDTVDNEHMGRRSSKCCCIYEKPRAFGESSTESDEEEEEGCGHTHCVRGHRKGRRRATLGPTPTTPPQPPDPSQPPPGPMQH
notes: PPP1R11), human, residues 1-126; also called I3_(1-126) 29AAA31; source: E. coli BL21 (DE3), purified (Ni-NTA, TEV, heat 95 °C, SEC); not shown: His6, N-terminal, cleaved; MBP, N-terminal, cleaved
**Q.** Which Kd [3] does the source give for B8 here?
**A.** The Kd was 13.1 ± 2.8 nM.

B9: RVxF_(dead): I3_(1-126) 40KAEA43 (natural protein, human, UniProt O60927 1-126, looked up)
chain: MAEAGAGLSETVTETTVTVTTEPENRSLTIKLRKRKPEKKAEATSDTVDNEHMGRRSSKCCCIYEKPRAFGESSTESDEEEEEGCGHTHCVRGHRKGRRRATLGPTPTTPPQPPDPSQPPPGPMQH
notes: PPP1R11), human, residues 1-126; Uniformly 15N-labelled in the NMR experiment, unlabelled in SPR; also called I3_(RAXA) variant; I3 RVxF_(dead); source: E. coli BL21 (DE3), purified (Ni-NTA, TEV, heat 95 °C, SEC); not shown: His6, N-terminal, cleaved; MBP, N-terminal, cleaved
**Q.** How did the Kd [3] turn out when B9 was run?
**A.** Its Kd is 3460 ± 531 nM.

B10: SSS: I3_(1-126) C60S/C61S/C62S (natural protein, human, UniProt O60927 1-126, looked up)
chain: MAEAGAGLSETVTETTVTVTTEPENRSLTIKLRKRKPEKKVEWTSDTVDNEHMGRRSSKSSSIYEKPRAFGESSTESDEEEEEGCGHTHCVRGHRKGRRRATLGPTPTTPPQPPDPSQPPPGPMQH
notes: PPP1R11), human, residues 1-126, C60S/C61S/C62S; also called I3_1-126_SSS; I3_(1-126)SSS; source: E. coli BL21 (DE3), purified (Ni-NTA, TEV cleavage, heat, SEC); not shown: His6, N-terminal, cleaved; MBP, N-terminal, cleaved
**Q.** B10 was tested. Which Kd [4] did it give?
**A.** The Kd was 295 nM and 330 nM and 287 nM and 304 nM.

**Q.** What about the koff [4] of the same molecule?
**A.** Its koff is 0.0957 s⁻¹ and 0.103 s⁻¹ and 0.093 s⁻¹ and 0.0972 s⁻¹.

**Q.** What about the kon [4] of the same molecule?
**A.** The kon was 325000 M⁻¹ s⁻¹ and 313000 M⁻¹ s⁻¹ and 321000 M⁻¹ s⁻¹.

B11: SILK_(dead): I3_(1-126) T29A/I30A/K31A (natural protein, human, UniProt O60927 1-126, looked up)
chain: MAEAGAGLSETVTETTVTVTTEPENRSLAAALRKRKPEKKVEWTSDTVDNEHMGRRSSKCCCIYEKPRAFGESSTESDEEEEEGCGHTHCVRGHRKGRRRATLGPTPTTPPQPPDPSQPPPGPMQH
notes: PPP1R11), human, residues 1-126, T29A/I30A/K31A; also called I3_1-126_SLAAA; I3_(1-126) 29AAA31; source: E. coli BL21 (DE3), purified (Ni-NTA, TEV cleavage, heat, SEC); not shown: His6, N-terminal, cleaved; MBP, N-terminal, cleaved
**Q.** How did the Kd [4] turn out when B11 was run?
**A.** Its Kd is 16.3 nM and 11.9 nM and 11.2 nM.

B12: RVxF_(dead): I3_(1-126) 40KAEA43 (natural protein, human, UniProt O60927 1-126, looked up)
chain: MAEAGAGLSETVTETTVTVTTEPENRSLTIKLRKRKPEKKAEATSDTVDNEHMGRRSSKCCCIYEKPRAFGESSTESDEEEEEGCGHTHCVRGHRKGRRRATLGPTPTTPPQPPDPSQPPPGPMQH
notes: PPP1R11), human, residues 1-126, 40KVEW43 mutated to 40KAEA43; also called I3_1-126_KAEA; I3_(RAXA); source: E. coli BL21 (DE3), purified (Ni-NTA, TEV cleavage, heat, SEC); not shown: His6, N-terminal, cleaved; MBP, N-terminal, cleaved
**Q.** With B12 as the molecule, how does the Kd [4] read?
**A.** Its Kd is 3390 nM and 3260 nM and 2970 nM and 4210 nM.
